# Experimental data from patent US20250179176A1, “ANTI-TIGIT ANTIBODIES AND USES OF THE SAME” (ARCUS BIOSCIENCES, INC., priority 2022, published 2025).
# Settings: in vivo
substance,measurement,value
"zimberelimab: antagonistic PD-1 antibody, immune checkpoint inhibitor",Any SAEs Leading to DC,8 (21) n (%)
same,Any SAEs Leading to Study Drug Discontinuation,9 (18.0) n (%)
same,"Any SAEs, events",30 n
same,"Any SAEs, subjects",18 (47.4) n (%)
same,"Any TEAEs of Grade 3 or Higher, events",41 n
same,"Any TEAEs of Grade 3 or Higher, subjects",20 (52.6) n (%)
same,Any TEAEs that are immune-related,24 (48.0) n (%)
same,"Any TEAEs, events",271 n
same,"Any TEAEs, subjects",36 (94.7) n (%)
same,"Grade ≥3 TEAE Acute respiratory failure, events",0 n
same,"Grade ≥3 TEAE Acute respiratory failure, subjects",0 n (%)
same,"Grade ≥3 TEAE Anaemia, events",2 n
same,"Grade ≥3 TEAE Anaemia, subjects",2 (5.3) n (%)
same,"Grade ≥3 TEAE Asthenia, events",2 n
same,"Grade ≥3 TEAE Asthenia, subjects",2 (5.3) n (%)
same,"Grade ≥3 TEAE Chronic obstructive pulmonary disease, events",0 n
same,"Grade ≥3 TEAE Chronic obstructive pulmonary disease, subjects",0 n (%)
same,"Grade ≥3 TEAE Dyspnoea, events",3 n
same,"Grade ≥3 TEAE Dyspnoea, subjects",3 (7.9) n (%)
same,"Grade ≥3 TEAE Fatigue, events",0 n
same,"Grade ≥3 TEAE Fatigue, subjects",0 n (%)
same,"Grade ≥3 TEAE Hyperglycaemia, events",2 n
same,"Grade ≥3 TEAE Hyperglycaemia, subjects",2 (5.3) n (%)
same,"Grade ≥3 TEAE Hyperkalaemia, events",0 n
same,"Grade ≥3 TEAE Hyperkalaemia, subjects",0 n (%)
same,"Grade ≥3 TEAE Hypertension, events",0 n
same,"Grade ≥3 TEAE Hypertension, subjects",0 n (%)
same,"Grade ≥3 TEAE Hypokalaemia, events",3 n
same,"Grade ≥3 TEAE Hypokalaemia, subjects",3 (7.9) n (%)
same,"Grade ≥3 TEAE Hypoxia, events",1 n
same,"Grade ≥3 TEAE Hypoxia, subjects",1 (2.6) n (%)
same,"Grade ≥3 TEAE Myocardial infarction, events",1 n
same,"Grade ≥3 TEAE Myocardial infarction, subjects",1 (2.6) n (%)
same,"Grade ≥3 TEAE Pericardial effusion, events",1 n
same,"Grade ≥3 TEAE Pericardial effusion, subjects",1 (2.6) n (%)
same,"Grade ≥3 TEAE Pleural effusion, events",2 n
same,"Grade ≥3 TEAE Pleural effusion, subjects",2 (5.3) n (%)
same,"Grade ≥3 TEAE Pneumonia, events",2 n
same,"Grade ≥3 TEAE Pneumonia, subjects",2 (5.3) n (%)
same,"Grade ≥3 TEAE Pneumonitis, events",2 n
same,"Grade ≥3 TEAE Pneumonitis, subjects",2 (5.3) n (%)
same,"Grade ≥3 TEAE Pulmonary embolism, events",3 n
same,"Grade ≥3 TEAE Pulmonary embolism, subjects",3 (7.9) n (%)
same,"Grade ≥3 TEAE Respiratory failure, events",0 n
same,"Grade ≥3 TEAE Respiratory failure, subjects",0 n (%)
same,"Grade ≥3 TEAE Sepsis, events",0 n
same,"Grade ≥3 TEAE Sepsis, subjects",0 n (%)
same,"Grade ≥3 TEAE Septic shock, events",1 n
same,"Grade ≥3 TEAE Septic shock, subjects",1 (2.6) n (%)
same,"Grade ≥3 TEAE Spinal compression fracture, events",2 n
same,"Grade ≥3 TEAE Spinal compression fracture, subjects",2 (5.3) n (%)
same,Immune-related TEAE Acute respiratory failure,0 n (%)
same,Immune-related TEAE Bronchospasm,0 n (%)
same,Immune-related TEAE Bulbar palsy,0 n (%)
same,Immune-related TEAE Colitis,0 n (%)
same,Immune-related TEAE Contrast media reaction,1 (2.0) n (%)
same,Immune-related TEAE Diabetes mellitus,1 (2.0) n (%)
same,Immune-related TEAE Diabetic ketoacidosis,1 (2.0) n (%)
same,Immune-related TEAE Drug eruption,1 (2.0) n (%)
same,Immune-related TEAE Erythema,1 (2.0) n (%)
same,Immune-related TEAE Eyelid oedema,0 n (%)
same,Immune-related TEAE Flushing,1 (2.0) n (%)
same,Immune-related TEAE Generalised oedema,0 n (%)
same,Immune-related TEAE Hyperthyroidism,1 (2.0) n (%)
same,Immune-related TEAE Hypothyroidism,4 (8.0) n (%)
same,Immune-related TEAE Idiopathic urticaria,0 n (%)
same,Immune-related TEAE Immune-mediated enterocolitis,1 (2.0) n (%)
same,Immune-related TEAE Infusion related reaction,0 n (%)
same,Immune-related TEAE Lichen planus,0 n (%)
same,Immune-related TEAE Mouth ulceration,0 n (%)
same,Immune-related TEAE Myocarditis,0 n (%)
same,Immune-related TEAE Myositis,1 (2.0) n (%)
same,Immune-related TEAE Pancreatitis,0 n (%)
same,Immune-related TEAE Pneumonitis,7 (14.0) n (%)
same,Immune-related TEAE Pneumonitis Grade ≥3,3 (6) n (%)
same,Immune-related TEAE Pruritus,8 (16.0) n (%)
same,Immune-related TEAE Rash,6 (12.0) n (%)
same,Immune-related TEAE Rash maculo-papular,1 (2.0) n (%)
same,Immune-related TEAE Rash pustular,0) n (%)
same,Immune-related TEAE Respiratory failure,1 (2.0) n (%)
same,Immune-related TEAE Rheumatoid arthritis,0 n (%)
same,Immune-related TEAE Rhinitis allergic,0 n (%)
same,Immune-related TEAE Seasonal allergy,0 n (%)
same,Immune-related TEAE Stomatitis,0 n (%)
same,Immune-related TEAE Thyroiditis,0 n (%)
same,Immune-related TEAE Tracheal obstruction,0 n (%)
same,Immune-related TEAE Type I diabetes mellitus,1 (2.0) n (%)
same,Immune-related TEAE Urticaria,0 n (%)
same,Immune-related TEAE Wheezing,0 n (%)
same,Infusion-related reactions,2 (4) n (%)
same,Rash,6 (12) n (%)
same,"SAE Anaemia, events",0 n
same,"SAE Anaemia, subjects",0 n (%)
same,"SAE Asthenia, events",2 n
same,"SAE Asthenia, subjects",2 (5.3) n (%)
same,"SAE Chronic obstructive pulmonary disease, events",0 n
same,"SAE Chronic obstructive pulmonary disease, subjects",0 n (%)
same,"SAE Myocardial infarction, events",1 n
same,"SAE Myocardial infarction, subjects",1 (2.6) n (%)
same,"SAE Pleural effusion, events",3 n
same,"SAE Pleural effusion, subjects",2 (5.3) n (%)
same,"SAE Pneumonia, events",2 n
same,"SAE Pneumonia, subjects",2 (5.3) n (%)
same,"SAE Pneumonitis, events",1 n
same,"SAE Pneumonitis, subjects",1 (2.6) n (%)
same,"SAE Pulmonary embolism, events",3 n
same,"SAE Pulmonary embolism, subjects",3 (7.9) n (%)
same,"SAE Septic shock, events",1 n
same,"SAE Septic shock, subjects",1 (2.6) n (%)
same,"SAE Spinal compression fracture, events",2 n
same,"SAE Spinal compression fracture, subjects",2 (5.3) n (%)
same,"TEAE Constipation, events",6 n
same,"TEAE Constipation, subjects",4 (10.5) n (%)
same,"TEAE Decreased appetite, events",6 n
same,"TEAE Decreased appetite, subjects",6 (15.8) n (%)
same,"TEAE Diarrhoea, events",7 n
same,"TEAE Diarrhoea, subjects",6 (15.8) n (%)
same,"TEAE Dyspnoea, events",9 n
same,"TEAE Dyspnoea, subjects",7 (18.4) n (%)
same,"TEAE Fatiguc, events",11 n
same,"TEAE Fatiguc, subjects",11 (28.9) n (%)
same,"TEAE Nausea, events",7 n
same,"TEAE Nausea, subjects",7 (18.4) n (%)
same,"TEAE Pneumonia, events",2 n
same,"TEAE Pneumonia, subjects",2 (5.3) n (%)
same,"TEAE Pneumonitis, events",7 n
same,"TEAE Pneumonitis, subjects",6 (15.8) n (%)
same,"TEAE Pruritus, events",6 n
same,"TEAE Pruritus, subjects",6 (15.8) n (%)
same,"TEAE Pyrexia, events",4 n
same,"TEAE Pyrexia, subjects",4 (10.5) n (%)
same,"TEAE Rash, events",8 n
same,"TEAE Rash, subjects",3 (7.9) n (%)
same,"TEAE Vomiting, events",3 n
same,"TEAE Vomiting, subjects",3 (7.9) n (%)
same,TEAEs leading to study drug mod. int.,12 (24.0) n (%)
same,"TEAEs leading to study drug mod. int., related to study treatment",7 (14.0) n (%)
same,"TEAEs leading to zim discon., related to zim",9 (18.0) n (%)
same,"TEAEs leading to zim mod./int., related to zim",7 (14.0) n (%)
same,grade 3 treatment-emergent adverse events,58%
same,tolerability,well tolerated
